One may read the IC50 as the concentration at which inhibition is half-maximal.

* marks the point of attachment. C18 diacid = O=C(O)CCCCCCCCCCCCCCCCC(=O)*

T1: human calcitonin receptor (human, UniProt P30988 25-474)
T1 construct: whole, on cells; also called hCT-R; hCTR
T1 sequence (looked up): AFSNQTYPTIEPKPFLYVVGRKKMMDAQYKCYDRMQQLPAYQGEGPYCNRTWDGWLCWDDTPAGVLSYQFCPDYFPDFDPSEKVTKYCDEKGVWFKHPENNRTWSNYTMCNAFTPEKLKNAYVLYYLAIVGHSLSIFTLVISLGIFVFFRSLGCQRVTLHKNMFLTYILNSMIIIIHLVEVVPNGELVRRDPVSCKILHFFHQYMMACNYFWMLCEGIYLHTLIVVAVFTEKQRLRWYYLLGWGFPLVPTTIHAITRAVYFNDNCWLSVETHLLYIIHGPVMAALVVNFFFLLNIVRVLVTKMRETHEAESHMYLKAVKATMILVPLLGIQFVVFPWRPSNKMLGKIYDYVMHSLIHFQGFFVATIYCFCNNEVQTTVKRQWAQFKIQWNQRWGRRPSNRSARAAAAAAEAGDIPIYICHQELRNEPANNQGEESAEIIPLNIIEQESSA

B1: [N-terminal(C18 diacid), 6H]mimylin (peptide)
peptide: {C18 diacid}-EASELHTAALGRLSAELHELATLPRTETGPESP-NH2
SMILES: CC(C)C[C@H](NC(=O)[C@H](C)NC(=O)[C@H](C)NC(=O)[C@@H](NC(=O)[C@H](Cc1c[nH]cn1)NC(=O)[C@H](CC(C)C)NC(=O)[C@H](CCC(=O)O)NC(=O)[C@H](CO)NC(=O)[C@H](C)NC(=O)[C@H](CCC(=O)O)NC(=O)CCCCCCCCCCCCCCCCC(=O)O)[C@@H](C)O)C(=O)NCC(=O)N[C@@H](CCCNC(=N)N)C(=O)N[C@@H](CC(C)C)C(=O)N[C@@H](CO)C(=O)N[C@@H](C)C(=O)N[C@@H](CCC(=O)O)C(=O)N[C@@H](CC(C)C)C(=O)N[C@@H](Cc1c[nH]cn1)C(=O)N[C@@H](CCC(=O)O)C(=O)N[C@@H](CC(C)C)C(=O)N[C@@H](C)C(=O)N[C@H](C(=O)N[C@@H](CC(C)C)C(=O)N1CCC[C@H]1C(=O)N[C@@H](CCCNC(=N)N)C(=O)N[C@H](C(=O)N[C@@H](CCC(=O)O)C(=O)N[C@H](C(=O)NCC(=O)N1CCC[C@H]1C(=O)N[C@@H](CCC(=O)O)C(=O)N[C@@H](CO)C(=O)N1CCC[C@H]1C(N)=O)[C@@H](C)O)[C@@H](C)O)[C@@H](C)O
notes: also called Ex. #16
B2: [N-terminal(C18 diacid), 9V, 25P]mimylin (peptide)
peptide: {C18 diacid}-EASELSTAVLGRLSAELHELATLPPTETGPESP-NH2
SMILES: CC(C)C[C@H](NC(=O)[C@H](CCC(=O)O)NC(=O)[C@H](Cc1c[nH]cn1)NC(=O)[C@H](CC(C)C)NC(=O)[C@H](CCC(=O)O)NC(=O)[C@H](C)NC(=O)[C@H](CO)NC(=O)[C@H](CC(C)C)NC(=O)[C@H](CCCNC(=N)N)NC(=O)CNC(=O)[C@H](CC(C)C)NC(=O)[C@@H](NC(=O)[C@H](C)NC(=O)[C@@H](NC(=O)[C@H](CO)NC(=O)[C@H](CC(C)C)NC(=O)[C@H](CCC(=O)O)NC(=O)[C@H](CO)NC(=O)[C@H](C)NC(=O)[C@H](CCC(=O)O)NC(=O)CCCCCCCCCCCCCCCCC(=O)O)[C@@H](C)O)C(C)C)C(=O)N[C@@H](C)C(=O)N[C@H](C(=O)N[C@@H](CC(C)C)C(=O)N1CCC[C@H]1C(=O)N1CCC[C@H]1C(=O)N[C@H](C(=O)N[C@@H](CCC(=O)O)C(=O)N[C@H](C(=O)NCC(=O)N1CCC[C@H]1C(=O)N[C@@H](CCC(=O)O)C(=O)N[C@@H](CO)C(=O)N1CCC[C@H]1C(N)=O)[C@@H](C)O)[C@@H](C)O)[C@@H](C)O
notes: also called Ex. #31
B3: [N-terminal(C18 diacid), 9V, 10I]mimylin (peptide)
peptide: {C18 diacid}-EASELSTAVIGRLSAELHELATLPRTETGPESP-NH2
SMILES: CC[C@H](C)[C@H](NC(=O)[C@@H](NC(=O)[C@H](C)NC(=O)[C@@H](NC(=O)[C@H](CO)NC(=O)[C@H](CC(C)C)NC(=O)[C@H](CCC(=O)O)NC(=O)[C@H](CO)NC(=O)[C@H](C)NC(=O)[C@H](CCC(=O)O)NC(=O)CCCCCCCCCCCCCCCCC(=O)O)[C@@H](C)O)C(C)C)C(=O)NCC(=O)N[C@@H](CCCNC(=N)N)C(=O)N[C@@H](CC(C)C)C(=O)N[C@@H](CO)C(=O)N[C@@H](C)C(=O)N[C@@H](CCC(=O)O)C(=O)N[C@@H](CC(C)C)C(=O)N[C@@H](Cc1c[nH]cn1)C(=O)N[C@@H](CCC(=O)O)C(=O)N[C@@H](CC(C)C)C(=O)N[C@@H](C)C(=O)N[C@H](C(=O)N[C@@H](CC(C)C)C(=O)N1CCC[C@H]1C(=O)N[C@@H](CCCNC(=N)N)C(=O)N[C@H](C(=O)N[C@@H](CCC(=O)O)C(=O)N[C@H](C(=O)NCC(=O)N1CCC[C@H]1C(=O)N[C@@H](CCC(=O)O)C(=O)N[C@@H](CO)C(=O)N1CCC[C@H]1C(N)=O)[C@@H](C)O)[C@@H](C)O)[C@@H](C)O
notes: also called Ex. #26
B4: [N-terminal(C18 diacid), 8L]mimylin (peptide)
peptide: {C18 diacid}-EASELSTLALGRLSAELHELATLPRTETGPESP-NH2
SMILES: CC(C)C[C@H](NC(=O)[C@H](C)NC(=O)[C@H](CC(C)C)NC(=O)[C@@H](NC(=O)[C@H](CO)NC(=O)[C@H](CC(C)C)NC(=O)[C@H](CCC(=O)O)NC(=O)[C@H](CO)NC(=O)[C@H](C)NC(=O)[C@H](CCC(=O)O)NC(=O)CCCCCCCCCCCCCCCCC(=O)O)[C@@H](C)O)C(=O)NCC(=O)N[C@@H](CCCNC(=N)N)C(=O)N[C@@H](CC(C)C)C(=O)N[C@@H](CO)C(=O)N[C@@H](C)C(=O)N[C@@H](CCC(=O)O)C(=O)N[C@@H](CC(C)C)C(=O)N[C@@H](Cc1c[nH]cn1)C(=O)N[C@@H](CCC(=O)O)C(=O)N[C@@H](CC(C)C)C(=O)N[C@@H](C)C(=O)N[C@H](C(=O)N[C@@H](CC(C)C)C(=O)N1CCC[C@H]1C(=O)N[C@@H](CCCNC(=N)N)C(=O)N[C@H](C(=O)N[C@@H](CCC(=O)O)C(=O)N[C@H](C(=O)NCC(=O)N1CCC[C@H]1C(=O)N[C@@H](CCC(=O)O)C(=O)N[C@@H](CO)C(=O)N1CCC[C@H]1C(N)=O)[C@@H](C)O)[C@@H](C)O)[C@@H](C)O
notes: also called Ex. #15
B5: [N-terminal(C18 diacid), 9V, 18A]mimylin (peptide)
peptide: {C18 diacid}-EASELSTAVLGRLSAELAELATLPRTETGPESP-NH2
SMILES: CC(C)C[C@H](NC(=O)[C@H](CCC(=O)O)NC(=O)[C@H](C)NC(=O)[C@H](CO)NC(=O)[C@H](CC(C)C)NC(=O)[C@H](CCCNC(=N)N)NC(=O)CNC(=O)[C@H](CC(C)C)NC(=O)[C@@H](NC(=O)[C@H](C)NC(=O)[C@@H](NC(=O)[C@H](CO)NC(=O)[C@H](CC(C)C)NC(=O)[C@H](CCC(=O)O)NC(=O)[C@H](CO)NC(=O)[C@H](C)NC(=O)[C@H](CCC(=O)O)NC(=O)CCCCCCCCCCCCCCCCC(=O)O)[C@@H](C)O)C(C)C)C(=O)N[C@@H](C)C(=O)N[C@@H](CCC(=O)O)C(=O)N[C@@H](CC(C)C)C(=O)N[C@@H](C)C(=O)N[C@H](C(=O)N[C@@H](CC(C)C)C(=O)N1CCC[C@H]1C(=O)N[C@@H](CCCNC(=N)N)C(=O)N[C@H](C(=O)N[C@@H](CCC(=O)O)C(=O)N[C@H](C(=O)NCC(=O)N1CCC[C@H]1C(=O)N[C@@H](CCC(=O)O)C(=O)N[C@@H](CO)C(=O)N1CCC[C@H]1C(N)=O)[C@@H](C)O)[C@@H](C)O)[C@@H](C)O
notes: also called Ex. #33
B6: [N-terminal(C18 diacid), 9I]mimylin (peptide)
peptide: {C18 diacid}-EASELSTAILGRLSAELHELATLPRTETGPESP-NH2
SMILES: CC[C@H](C)[C@H](NC(=O)[C@H](C)NC(=O)[C@@H](NC(=O)[C@H](CO)NC(=O)[C@H](CC(C)C)NC(=O)[C@H](CCC(=O)O)NC(=O)[C@H](CO)NC(=O)[C@H](C)NC(=O)[C@H](CCC(=O)O)NC(=O)CCCCCCCCCCCCCCCCC(=O)O)[C@@H](C)O)C(=O)N[C@@H](CC(C)C)C(=O)NCC(=O)N[C@@H](CCCNC(=N)N)C(=O)N[C@@H](CC(C)C)C(=O)N[C@@H](CO)C(=O)N[C@@H](C)C(=O)N[C@@H](CCC(=O)O)C(=O)N[C@@H](CC(C)C)C(=O)N[C@@H](Cc1c[nH]cn1)C(=O)N[C@@H](CCC(=O)O)C(=O)N[C@@H](CC(C)C)C(=O)N[C@@H](C)C(=O)N[C@H](C(=O)N[C@@H](CC(C)C)C(=O)N1CCC[C@H]1C(=O)N[C@@H](CCCNC(=N)N)C(=O)N[C@H](C(=O)N[C@@H](CCC(=O)O)C(=O)N[C@H](C(=O)NCC(=O)N1CCC[C@H]1C(=O)N[C@@H](CCC(=O)O)C(=O)N[C@@H](CO)C(=O)N1CCC[C@H]1C(N)=O)[C@@H](C)O)[C@@H](C)O)[C@@H](C)O
notes: also called Ex. #10
B7: [N-terminal(C18 diacid), 9L, 10A]mimylin (peptide)
peptide: {C18 diacid}-EASELSTALAGRLSAELHELATLPRTETGPESP-NH2
SMILES: CC(C)C[C@H](NC(=O)[C@H](C)NC(=O)[C@@H](NC(=O)[C@H](CO)NC(=O)[C@H](CC(C)C)NC(=O)[C@H](CCC(=O)O)NC(=O)[C@H](CO)NC(=O)[C@H](C)NC(=O)[C@H](CCC(=O)O)NC(=O)CCCCCCCCCCCCCCCCC(=O)O)[C@@H](C)O)C(=O)N[C@@H](C)C(=O)NCC(=O)N[C@@H](CCCNC(=N)N)C(=O)N[C@@H](CC(C)C)C(=O)N[C@@H](CO)C(=O)N[C@@H](C)C(=O)N[C@@H](CCC(=O)O)C(=O)N[C@@H](CC(C)C)C(=O)N[C@@H](Cc1c[nH]cn1)C(=O)N[C@@H](CCC(=O)O)C(=O)N[C@@H](CC(C)C)C(=O)N[C@@H](C)C(=O)N[C@H](C(=O)N[C@@H](CC(C)C)C(=O)N1CCC[C@H]1C(=O)N[C@@H](CCCNC(=N)N)C(=O)N[C@H](C(=O)N[C@@H](CCC(=O)O)C(=O)N[C@H](C(=O)NCC(=O)N1CCC[C@H]1C(=O)N[C@@H](CCC(=O)O)C(=O)N[C@@H](CO)C(=O)N1CCC[C@H]1C(N)=O)[C@@H](C)O)[C@@H](C)O)[C@@H](C)O
notes: also called Ex. #27

The target in this test is T1, human calcitonin receptor. Briefly: whole-cell competition vs 125I-human calcitonin (Assay VIIa). On the procedure:
The binding assay was performed using a BHK tk'ts 13 cell line was stably transfected with the human calcitonin receptor, and a CRE-responsive luciferase reporter gene.
The day before the assay the cells were Seeded into Poly-D-Lysin coated 384W Opaque White, BD BioCoat plates (10000 cells/well) and Incubated overnight at 37° C., 5% CO2, 95% humidity. […] The morning after, the plates were washed three times in HBSS (4° C.), and lyzed in Lysis buffer (0.1 M NaOH), 1% SDS. Scintillation cocktail (MicroScint40®) was added and the plates were shaken at 500 rpm for a short period. The plate was incubated at room temperature in the dark for 1 hour and Read on a TopCounter™ (Packard). The IC₅₀ was calculated using (one site binding competition analysis) GraphPad Prism5 as a measure of receptor affinity.
As for B1, the IC50 is 981 pM.

For the molecule B2, the IC50 worked out at 506 pM.

With B3, the IC50 was 570 pM.

For the molecule B4, the IC50 was found to be 473 pM.

As to B5, the 50% inhibitory concentration (IC50) was found to be 752 pM.

As to B6, the IC50 was found to be 523 pM.

On to B7, for which the 50% inhibitory concentration (IC50) came out at 219 pM.

The values above are taken from US20160272683A1 (Novo Nordisk, published 2016).
